The target of data set [1] is T1, IcmF (isobutyryl-CoA mutase fused) (Cupriavidus metallidurans, UniProt Q1LRY0).
T1 construct: resting homodimer; oligomerizes with GTP/GMPPCP; modelled residues 22-1093
T1 sequence (Q1LRY0 1-1093): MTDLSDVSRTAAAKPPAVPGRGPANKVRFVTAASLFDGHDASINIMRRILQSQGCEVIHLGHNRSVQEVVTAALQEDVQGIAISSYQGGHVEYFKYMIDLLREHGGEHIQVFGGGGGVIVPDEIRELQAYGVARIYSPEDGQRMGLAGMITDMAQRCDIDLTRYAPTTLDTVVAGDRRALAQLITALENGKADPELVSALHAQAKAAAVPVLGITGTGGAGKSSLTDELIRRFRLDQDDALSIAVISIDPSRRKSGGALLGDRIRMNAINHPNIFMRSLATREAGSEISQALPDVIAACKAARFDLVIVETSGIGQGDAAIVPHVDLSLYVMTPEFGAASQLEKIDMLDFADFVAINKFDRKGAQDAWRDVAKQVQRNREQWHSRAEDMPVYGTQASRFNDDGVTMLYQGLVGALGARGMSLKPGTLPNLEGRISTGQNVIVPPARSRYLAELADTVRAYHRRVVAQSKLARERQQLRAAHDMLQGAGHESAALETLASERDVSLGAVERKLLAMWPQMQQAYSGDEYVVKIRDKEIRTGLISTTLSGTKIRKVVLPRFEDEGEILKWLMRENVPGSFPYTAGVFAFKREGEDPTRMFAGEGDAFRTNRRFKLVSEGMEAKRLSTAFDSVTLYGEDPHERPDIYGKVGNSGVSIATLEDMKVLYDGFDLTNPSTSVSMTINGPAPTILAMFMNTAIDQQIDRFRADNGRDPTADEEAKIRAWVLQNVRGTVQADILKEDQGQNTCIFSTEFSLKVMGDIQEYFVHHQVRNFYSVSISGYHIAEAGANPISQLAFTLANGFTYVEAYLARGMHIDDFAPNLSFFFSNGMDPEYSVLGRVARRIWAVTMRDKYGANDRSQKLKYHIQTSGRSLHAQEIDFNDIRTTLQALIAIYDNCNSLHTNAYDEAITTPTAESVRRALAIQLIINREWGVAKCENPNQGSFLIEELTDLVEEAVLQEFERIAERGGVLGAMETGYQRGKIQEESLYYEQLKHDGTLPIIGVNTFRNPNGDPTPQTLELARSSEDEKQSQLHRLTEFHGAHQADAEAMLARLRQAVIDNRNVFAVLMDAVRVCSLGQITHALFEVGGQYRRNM
Put plainly: negative stain EM of oligomers. The format is binding. As to conditions: 500 μM GMPPNP; pH 8; with hydroxocobalamin or photolysed AdoCbl; weaker oligomerization agonist than GMPPCP.

Data set [2] concerns the target T2, IcmF (isobutyryl-CoA mutase fused) (Cupriavidus metallidurans, UniProt Q1LRY0, Q341A).
T2 construct: resting homodimer; oligomerizes with GTP/GMPPCP; modelled residues 22-1093
Put plainly: cryo-EM, […] Å. The conditions noted are these: sample prepared with 500 μM GTP, 2 μM enzyme; GDP modelled at each nucleotide site of the G-protein domain; Mg2+ in chain A. The format is binding.

Substrate in data set [3]: Nc1nc2c(ncn2[C@@H]2O[C@H](COP(=O)(O)OP(=O)(O)OP(=O)(O)O)[C@@H](O)[C@H]2O)c(=O)[nH]1
The data set is described as follows: purified protein. The format is biochemical, Cupriavidus metallidurans. The conditions noted are these: GTPase, 0.5 μM enzyme, 23 °C, GTP 2–1500 μM.

Data set [4] concerns the molecule itself. Put plainly: negative stain EM; 20 ng/μl wt IcmF in 20 mM Hepes pH 8, 50 mM NaCl, no nucleotide or 500 μM GDP (30 min on ice); dimer seen, dimer with dimer not seen.
Data set [5] deals with the molecule itself. The data set is described as follows: cryo-EM structure; 2 μM Q341A IcmF, 500 μM GTP in SEC buffer; 4.6 Å reconstruction, three protomers modelled.

`Nc1nc2c(ncn2[C@@H]2O[C@H](COP(=O)(O)OP(=O)(O)NP(=O)(O)O)[C@@H](O)[C@H]2O)c(=O)[nH]1` [GMPPNP]: the “negative stain EM of oligomers” value in data set [1] is listed as “Photolysis of AdoCbl leads to more supramolecular complex formation but not as many as in the GMPPNP + OHCbl”.
Turning to `Nc1nc2c(ncn2[C@@H]2O[C@H](COP(=O)(O)OP(=O)(O)O)[C@@H](O)[C@H]2O)c(=O)[nH]1` [GDP], the “cryo-EM, 4.6 Å” value in data set [2] is “there was clear density for GDP at each nucleotide-binding site”.

B1: Cupriavidus metallidurans isobutyryl-CoA mutase fused (IcmF), wild type (enzyme, UniProt Q1LRY0 1-1093, looked up)
chain: MTDLSDVSRTAAAKPPAVPGRGPANKVRFVTAASLFDGHDASINIMRRILQSQGCEVIHLGHNRSVQEVVTAALQEDVQGIAISSYQGGHVEYFKYMIDLLREHGGEHIQVFGGGGGVIVPDEIRELQAYGVARIYSPEDGQRMGLAGMITDMAQRCDIDLTRYAPTTLDTVVAGDRRALAQLITALENGKADPELVSALHAQAKAAAVPVLGITGTGGAGKSSLTDELIRRFRLDQDDALSIAVISIDPSRRKSGGALLGDRIRMNAINHPNIFMRSLATREAGSEISQALPDVIAACKAARFDLVIVETSGIGQGDAAIVPHVDLSLYVMTPEFGAASQLEKIDMLDFADFVAINKFDRKGAQDAWRDVAKQVQRNREQWHSRAEDMPVYGTQASRFNDDGVTMLYQGLVGALGARGMSLKPGTLPNLEGRISTGQNVIVPPARSRYLAELADTVRAYHRRVVAQSKLARERQQLRAAHDMLQGAGHESAALETLASERDVSLGAVERKLLAMWPQMQQAYSGDEYVVKIRDKEIRTGLISTTLSGTKIRKVVLPRFEDEGEILKWLMRENVPGSFPYTAGVFAFKREGEDPTRMFAGEGDAFRTNRRFKLVSEGMEAKRLSTAFDSVTLYGEDPHERPDIYGKVGNSGVSIATLEDMKVLYDGFDLTNPSTSVSMTINGPAPTILAMFMNTAIDQQIDRFRADNGRDPTADEEAKIRAWVLQNVRGTVQADILKEDQGQNTCIFSTEFSLKVMGDIQEYFVHHQVRNFYSVSISGYHIAEAGANPISQLAFTLANGFTYVEAYLARGMHIDDFAPNLSFFFSNGMDPEYSVLGRVARRIWAVTMRDKYGANDRSQKLKYHIQTSGRSLHAQEIDFNDIRTTLQALIAIYDNCNSLHTNAYDEAITTPTAESVRRALAIQLIINREWGVAKCENPNQGSFLIEELTDLVEEAVLQEFERIAERGGVLGAMETGYQRGKIQEESLYYEQLKHDGTLPIIGVNTFRNPNGDPTPQTLELARSSEDEKQSQLHRLTEFHGAHQADAEAMLARLRQAVIDNRNVFAVLMDAVRVCSLGQITHALFEVGGQYRRNM
notes: Isobutyryl-CoA mutase fused (IcmF) of Cupriavidus metallidurans; Resting state is a homodimer; dimers join through their G-protein domains into higher-order oligomers; The plasmid has a thrombin cleavage site after the His-tag; no cleavage is described; also called wt IcmF; cmIcmF; source: E. coli BL21 T7 Express, purified (Ni-NTA, MonoQ, SEC)
As usually defined, the Km is the substrate concentration at which the rate is half of its maximum. Usually Vmax stands for the top rate of the reaction or transport when substrate is in excess. What is called kcat is the number of substrate molecules converted per active site and unit of time at saturation. Usually kcat/Km stands for the second-order rate constant that governs catalysis at low substrate concentration. As a reminder, the stoichiometry N is a count of units in the complex or per binding partner. In the case of B1, in data set [3], the Michaelis-Menten constant (Km) was found to be 2.4 ± 0.9 µM, the Vmax was 1.57 µM/min, the catalytic constant (kcat) came out at 0.0522 ± 0.003 s⁻¹ and the kcat/Km came to 21700 M⁻¹ s⁻¹. Moreover, the “stoichiometry N” value in data set [4] was determined as 2.

B2: Cupriavidus metallidurans isobutyryl-CoA mutase fused (IcmF), Q341A switch III variant (enzyme, UniProt Q1LRY0 1-1093, looked up)
chain: MTDLSDVSRTAAAKPPAVPGRGPANKVRFVTAASLFDGHDASINIMRRILQSQGCEVIHLGHNRSVQEVVTAALQEDVQGIAISSYQGGHVEYFKYMIDLLREHGGEHIQVFGGGGGVIVPDEIRELQAYGVARIYSPEDGQRMGLAGMITDMAQRCDIDLTRYAPTTLDTVVAGDRRALAQLITALENGKADPELVSALHAQAKAAAVPVLGITGTGGAGKSSLTDELIRRFRLDQDDALSIAVISIDPSRRKSGGALLGDRIRMNAINHPNIFMRSLATREAGSEISQALPDVIAACKAARFDLVIVETSGIGQGDAAIVPHVDLSLYVMTPEFGAASALEKIDMLDFADFVAINKFDRKGAQDAWRDVAKQVQRNREQWHSRAEDMPVYGTQASRFNDDGVTMLYQGLVGALGARGMSLKPGTLPNLEGRISTGQNVIVPPARSRYLAELADTVRAYHRRVVAQSKLARERQQLRAAHDMLQGAGHESAALETLASERDVSLGAVERKLLAMWPQMQQAYSGDEYVVKIRDKEIRTGLISTTLSGTKIRKVVLPRFEDEGEILKWLMRENVPGSFPYTAGVFAFKREGEDPTRMFAGEGDAFRTNRRFKLVSEGMEAKRLSTAFDSVTLYGEDPHERPDIYGKVGNSGVSIATLEDMKVLYDGFDLTNPSTSVSMTINGPAPTILAMFMNTAIDQQIDRFRADNGRDPTADEEAKIRAWVLQNVRGTVQADILKEDQGQNTCIFSTEFSLKVMGDIQEYFVHHQVRNFYSVSISGYHIAEAGANPISQLAFTLANGFTYVEAYLARGMHIDDFAPNLSFFFSNGMDPEYSVLGRVARRIWAVTMRDKYGANDRSQKLKYHIQTSGRSLHAQEIDFNDIRTTLQALIAIYDNCNSLHTNAYDEAITTPTAESVRRALAIQLIINREWGVAKCENPNQGSFLIEELTDLVEEAVLQEFERIAERGGVLGAMETGYQRGKIQEESLYYEQLKHDGTLPIIGVNTFRNPNGDPTPQTLELARSSEDEKQSQLHRLTEFHGAHQADAEAMLARLRQAVIDNRNVFAVLMDAVRVCSLGQITHALFEVGGQYRRNM
notes: Isobutyryl-CoA mutase fused (IcmF) of Cupriavidus metallidurans with Q341A in the switch III region of the G-protein domain; also called Q341A IcmF; source: E. coli BL21 T7 Express, purified (Ni-NTA, MonoQ, SEC)
For B2, in data set [3], the Michaelis constant (Km) was found to be 2.2 ± 0.8 µM, the Vmax came out at 0.533 µM/min, the kcat stood at 0.0178 ± 0.00117 s⁻¹ and the kcat/Km amounted to 8170 M⁻¹ s⁻¹. Besides, the binding result in data set [5] is reported as “binds”.
